Experiments:
Format in all cases: biochemical
[1] = Ratio of enzyme activity with pHBA versus sinapic acid (spectrophotometric assays); details: for times more active with sinapic acid than pHBA / pHBA/SA ratio of enzyme activity: crude extract; for Ratio of Activity pHBA/SA: Table 4, cell-free extracts, 10 mM pHBA or sinapic acid, 25° C.; for rate of pHBA glucosylation relative to sinapic acid: cell-free extract
Method: (§1) The second assay is based on the increase in absorbance at 368 nm that accompanies the formation of the glucose ester of sinapic acid. The experimental conditions were the same as those described above, but the test substrate was sinapic acid and product formation was calculated using an extinction coefficient of 5,570 M^−1 that was obtained with the authentic chemically synthesized compound under identical conditions.

[2] = Continuous spectrophotometric UDP-glucosyltransferase assay, formation of pHBA glucose ester at 304 nm, E. coli cell-free extracts; details: crude extract, 10 mM UDP-glucose, pH 7.3, 25° C.
Method: (§2) For protein production, the resulting recombinant strains were grown at 22° C. in 50 mL of LB media that contained kanamycin (50 μg/mL). At an A600 nm of ˜0.6, isopropyl-1-thio-β-D-galactopyranoside was added to a final concentration of 0.2 mM. Following a 22-h induction period at the same temperature, the cells were harvested by centrifugation and stored at −80° C. for subsequent manipulation as described below.
(§3) The frozen cell pellets were resuspended in 1.0 mL of a solution containing 100 mM Tris-HCl (pH 7.7), 5 mM MgSO4, 1 mM dithiothreitol, 0.03 mg/mL DNAse I, 0.5 mM phenylmethanesulfonyl fluoride, and passed once through a French pressure cell at 20,000 psi. Debris was removed by centrifugation (43,000×g, 60 min), and the resulting cell-free extracts, containing ˜15 mg of protein per mL, were supplemented with 5% glycerol and stored at −80° C. for subsequent measurements of enzyme activities. Protein concentrations were determined by the Bradford Method using bovine serum albumin as a standard.

[3] = Continuous spectrophotometric UDP-glucosyltransferase assay, formation of glucose ester of sinapic acid at 368 nm, E. coli cell-free extracts; details: crude extract, 10 mM UDP-glucose, pH 7.3, 25° C.; for initial rate of product formation, 1 mM SA: 1 mM sinapic acid; for initial rate of product formation, 5 mM SA: 5 mM sinapic acid; for initial rate of product formation, 10 mM SA: 10 mM sinapic acid
Method: as §2, §3, §1

B1: GT 3: Arabidopsis UDP-glucosyltransferase, GenBank AL161541.2, SEQ ID NO:8 (protein, listed as Arabidopsis thaliana)
chain: MMFETCPSPNPIHVMLVSFQGQGHVNPLLRLGKLIASKGLLVTFVTTELWGKKMRQANKIVDGELKPVGSGSIRFEFFDEEWAEDDDRRADFSLYIAHLESVGIREVSKLVRRYEEANEPVSCLINNPFIPWVCHVAEEFNIPCAVLWVQSCACFSAYYHYQDGSVSFPTETEPELDVKLPCVPVLKNDEIPSFLHPSSRFTGFRQAILGQFKNLSKSFCVLIDSFDSLEQEVIDYMSSLCPVKTVGPLFKVARTVTSDVSGDICKSTDKCLEWLDSRPKSSVVYISFGTVAYLKQEQIEEIAHGVLKSGLSFLWVIRPPPHDLKVETHVLPQELKESSAKGKGMIVDWCPQEQVLSHPSVACFVTHCGWNSTMESLSSGVPVVCCPQWGDQVTDAVYLIDVFKTGVRLGRGATEERVVPREEVAEKLLEATVGEKAEELRKNALKWKAEAEAAVAPGGSSDKNFREFVEKLGAGVTKTKDNGY
Which “times more active with sinapic acid than pHBA” value ([1]; 10 mM substrate) does the source give for B1 here?
The value was “only about twice as active”.

What about the “Ratio of Activity pHBA/SA” value [1] of the same molecule?
The value was 0.454.

What about the “pHBA/SA ratio of enzyme activity” value ([1]; 1 mM substrate) of the same molecule?
The value was 0.064.

What about the “pHBA/SA ratio of enzyme activity” value ([1]; 5 mM substrate) of the same molecule?
Its value is 0.268.

What about the “pHBA/SA ratio of enzyme activity” value ([1]; 10 mM substrate) of the same molecule?
The value was 0.454.

What about the “initial rate of product formation, 1 mM pHBA” value [2] of the same molecule?
The value was 9.4 μM per min.

What about the “initial rate of product formation, 5 mM pHBA” value [2] of the same molecule?
Its value is 42.3 μM per min.

And the “initial rate of product formation, 10 mM pHBA” value [2]?
The value was 64.9 μM per min.

And the “initial rate of product formation, 1 mM SA” value [3]?
The value was 146 μM per min.

What about the “initial rate of product formation, 5 mM SA” value [3] of the same molecule?
Its value is 158 μM per min.

What about the “initial rate of product formation, 10 mM SA” value [3] of the same molecule?
The value was 143 μM per min.

B2: SA-GT: Brassica napus UDP-glucosyltransferase (GenBank Accession No. AF287143), SEQ ID NO:4 (protein, listed as Brassica napus)
chain: MELSSSPLPPHVMLLSFPGQGHVNPLLRLGKLLASKGLLVTFVTTESWGKKMRTANKIQDRALKPIGKGYLRFDFFDDGLPEDDDASRTNLTILRPQLELVGQQEIKNLVKRYKEVMKQPVTCLINNPFVSWVCDVAEDLQIPCAVLWVQSCACLASYYYYHHKLVDFPTETDPKIDVQIPCMPVLKHDEIPSFIHPFSPYSGLREVIIDQIKRLHKPFVVLIDTFYSLEKDIIDHMTNLSRTGVVRPLGPLYKMAKTLICDDIKGDMSETRDDCMEWLDSQPVSSVVYISFGTMAYVTQEQISEIAFGVLNAGVSFLWVIRQQELGVNKERHVLPEELKGKGKVVEWCSQEKVLAHPSVVCFVTHCGWNSTMEALSSGVPTVCFPQWGDQVTDAAYMSDVFKTGVRLSRGETEERVVPREEVAERLREVTKGEKATELKKNALKWKEEAEAAVARRGSSDRNLDEFVEKLCVKHVAKQNGSLNQNGSIQKLLLQKS
Which results are given for B2?
times more active with sinapic acid than pHBA ([1]; 10 mM substrate): at least 50 times; Ratio of Activity pHBA/SA [1]: 0.018; pHBA/SA ratio of enzyme activity ([1]; 1 mM substrate): 0.002; pHBA/SA ratio of enzyme activity ([1]; 5 mM substrate): 0.007; pHBA/SA ratio of enzyme activity ([1]; 10 mM substrate): 0.018; initial rate of product formation, 1 mM pHBA [2]: 0.20 μM per min; initial rate of product formation, 5 mM pHBA [2]: 0.59 μM per min; initial rate of product formation, 10 mM pHBA [2]: 1.03 μM per min; initial rate of product formation, 1 mM SA [3]: 118 μM per min; initial rate of product formation, 5 mM SA [3]: 82 μM per min; initial rate of product formation, 10 mM SA [3]: 55.6 μM per min

B3: Citrus GT: Citrus mitis UDP-glucosyltransferase, SEQ ID NO:31 (protein, listed as Citrus mitis)
chain: MGTESLVHVLLVSFPGHGHVNPLLRLGRLLASKGFFLTLTTPESFGKQMRKAGNFTYEPTPVGDGFIRFEFFEDGWDEDDPGRRDLDQYMAQLELIGKQVIPKIIKKSAEEYRPVSCLINNPFIPWVSDVAESLGLPSAMLWVQSCACFAAYYHYFHGLVPFPSEKEPEIDVQLPCMPLLKHDEVPSFLHPSTPYPFLRRAILGQYENLGKPFCILLDTFYELEKEIIDYMAKICPIKPVGPLFKNPKAPTLTVRDDCMKPDECIDWLDKKPPSSVVYISFGTVVYLKQEQVEEIGYALLNSGISFLWVMKPPPEDSGVKIVDLPDGFLEKVGDKGKVVQWSPQEKVLAHPSVACFVTHCGWNSTMESLASGVPVITFPQWGDQVTDAMYLCDVFKTGLRLCRGEAENRIISRDEVEKCLLEATAGPKAAELKESALKWKQEAEEAVADGGSSDRNIQAFVDEVRRRSVGIITSSKSKSIHRVKELVEKTATATANDKVELVES
Which “substrate preference for pHBA over sinapic acid” value ([1]; 10 mM substrate concentration) does the source give for B3 here?
The value was 4.88 fold.

And the “rate of pHBA glucosylation relative to sinapic acid” value ([1]; 10 mM substrate)?
The value was “at least six times faster”.

What about the “Ratio of Activity pHBA/SA” value [1] of the same molecule?
Its value is 6.35.

B4: Eucalyptus GT: Eucalyptus grandis UDP-glucosyltransferase, SEQ ID NO:22 (protein, listed as Eucalyptus grandis)
chain: MGSEALVHVLLVSFPGQGHVNPLLRLGKRLASKGLLVTFTTPESIGKAMRKASNIGEELSPVGDGFIRFEFFEDGWDEDEIRRQDLDQYLPQLEKVGKVLIPEMIRRNAEQGRPISCLINNPFIPWVSDVADSLGLPSAMLWVQSCACFTSYYYYYHGLVPFPSETAMEIDVQLPCMPLLKHDEVPSFLYPTTPYPFLRRAIMGQYKNLDKPFCILMDTFQELEHEIIEYMSKISPIKTVGPLFKNPKAPNATVKGDFMKADDCVGWLDSKPASSIVYVSFGSVVYLKQDQWDEIAYGLLNSGVNFLWVMKPPHKDSGYEVLKMPEGFLEKAGDRGKVVQWSPQEQVLAHPSVACFVTHCGWNSTMEALTSGMPVVAFPQWGDQVTDAKYLVDVFKVGVRMCRGEAENKLITRDVVEQCLREATSGPKAEEMKQNAMKWSAAAEAAVAEGGSSDRNIQAFVDEVKRRSLEVLAASGKSTANGGADLANKVAANGVAELGEPKVNGELKVVS
Which “rate of pHBA glucosylation relative to sinapic acid” value ([1]; 10 mM substrate) does the source give for B4 here?
Its value is “over an order of magnitude greater”.

And the “Ratio of Activity pHBA/SA” value [1]?
Its value is 13.2.

B5: GT 5: Arabidopsis UDP-glucosyltransferase, GenBank AL161541.2, SEQ ID NO:16 (protein, listed as Arabidopsis thaliana)
chain: MKMESSLPHVMLVSFPGQGHISPLLRLGKIIASKGLIVTFVTTEEPLGKKMRQANNIQDGVLKPVGLGFLRFEFFEDGFVYKEDFDLLQKSLEVSGKREIKNLVKKYEKQPVRCLINNAFVPWVCDIAEELQIPSAVLWVQSCACLAAYYYYHHQLVKFPTETEPEITVDVPFKPLTLKHDEIPSFLHPSSPLSSIGGTILEQIKRLHKPFSVLIETFQELEKDTIDHMSQLCPQVNFNPIGPLFTMAKTIRSDIKGDISKPDSDCIEWLDSREPSSVVYISFGTLAFLKQNQIDEIAHGILNSGLSCLWVLRPPLEGLAIEPHVLPLELEEKGKIVEWCQQEKVLAHPAVACFLSHCGWNSTMEALTSGVPVICFPQWGDQVTNAVYMIDVFKTGLRLSRGASDERIVPREEVAERLLEATVGEKAVELRENARRWKEEAESAVAYGGTSERNFQEFVDKLVDVKTMTNINNVV
For B5, which “Ratio of Activity pHBA/SA” value [1] is on record?
Its value is 0.141.

And the “pHBA/SA ratio of enzyme activity” value ([1]; 1 mM substrate)?
Its value is 0.044.

What about the “pHBA/SA ratio of enzyme activity” value ([1]; 5 mM substrate) of the same molecule?
Its value is 0.049.

What about the “pHBA/SA ratio of enzyme activity” value ([1]; 10 mM substrate) of the same molecule?
Its value is 0.141.

And the “initial rate of product formation, 1 mM pHBA” value [2]?
Its value is 0.23 μM per min.

And the “initial rate of product formation, 5 mM pHBA” value [2]?
The value was 0.45 μM per min.

What about the “initial rate of product formation, 10 mM pHBA” value [2] of the same molecule?
The value was 0.83 μM per min.

And the “initial rate of product formation, 1 mM SA” value [3]?
The value was 5.18 μM per min.

And the “initial rate of product formation, 5 mM SA” value [3]?
Its value is 9.2 μM per min.

And the “initial rate of product formation, 10 mM SA” value [3]?
Its value is 5.9 μM per min.

B6: GT 4: Arabidopsis UDP-glucosyltransferase, GenBank AL161541, SEQ ID NO:12 (protein, listed as Arabidopsis thaliana)
chain: MNPSRHTHVMLVSFPGQGHVNPLLRLGKLIASKGLLVTFVTTEKPWGKKMRQANKIQDGVLKPVGLGFIRFEFFSDGFADDDEKRFDFDAFRPHLEAVGKQEIKNLVKRYNKEPVTCLINNAFVPWVCDVAEELHIPSAVLWVQSCACLTAYYYYHHRLVKFPTKTEPDISVEIPCLPLLKHDEIPSFLHPSSPYTAFGDIILDQLKRFENHKSFYLFIDTFRELEKDIMDHMSQLCPQAIISPVGPLFKMAQTLSSDVKGDISEPASDCMEWLDSREPSSVVYISFGTIANLKQEQMEEIAHGVLSSGLSVLWVVRPPMEGTFVEPHVLPRELEEKGKIVEWCPQERVLAHPAIACFLSHCGWNSTMEALTAGVPVVCFPQWGDQVTDAVYLADVFKTGVRLGRGAAEEMIVSREVVAEKLLEATVGEKAVELRENARRWKAEAEAAVADGGSSDMNFKEFVDKLVTKHVTREDNGEH
With B6 as the molecule, how does the “times more active with sinapic acid than pHBA” value ([1]; 10 mM substrate) read?
The value was “at least 80 times”.
